The values that follow come from patent US20110306057A1 (Dana-Farber, published 2011).

A value given as a limit tells only on which side of the number the result lay.

For assay [1], the target named is PP2A regulatory subunit B56γ (human (endogenous in human HEK TER …, UniProt Q13362 1-524)). The experiment in a line: anti-FLAG co-IP from HEK TER cells, immunoblot, densitometry.
Assay [2] addresses T1, PP2A regulatory subunit B55α (human (endogenous in human HEK TER …, UniProt P63151 2-447, limits assumed)).
T1 construct: Endogenous protein found in anti-FLAG immune complexes by immunoblot
T1 sequence (looked up): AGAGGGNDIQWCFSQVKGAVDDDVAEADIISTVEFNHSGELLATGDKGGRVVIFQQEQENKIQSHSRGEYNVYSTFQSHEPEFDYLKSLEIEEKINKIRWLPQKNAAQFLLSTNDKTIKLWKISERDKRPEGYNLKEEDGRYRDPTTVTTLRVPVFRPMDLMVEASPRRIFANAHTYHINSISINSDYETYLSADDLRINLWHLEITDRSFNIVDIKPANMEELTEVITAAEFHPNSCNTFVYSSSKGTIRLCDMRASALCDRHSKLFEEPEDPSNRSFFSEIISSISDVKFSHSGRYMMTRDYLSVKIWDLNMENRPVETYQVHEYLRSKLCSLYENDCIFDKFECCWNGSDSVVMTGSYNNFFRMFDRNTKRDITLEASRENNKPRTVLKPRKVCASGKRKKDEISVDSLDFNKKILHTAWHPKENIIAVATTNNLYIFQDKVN
The experiment in a line: anti-FLAG co-IP from HEK TER cells, immunoblot, densitometry; +++ >90%, ++ 50-90%, + <50%. A general note: In western blotting, separated proteins are transferred to a membrane and probed.

In assay [3] the target is T2, PP2A regulatory subunit B56α (human (endogenous in human HEK TER …, UniProt Q15172 2-486, limits assumed)).
T2 construct: Endogenous protein found in anti-FLAG immune complexes by immunoblot
T2 sequence (Q15172 2-486 limits assumed): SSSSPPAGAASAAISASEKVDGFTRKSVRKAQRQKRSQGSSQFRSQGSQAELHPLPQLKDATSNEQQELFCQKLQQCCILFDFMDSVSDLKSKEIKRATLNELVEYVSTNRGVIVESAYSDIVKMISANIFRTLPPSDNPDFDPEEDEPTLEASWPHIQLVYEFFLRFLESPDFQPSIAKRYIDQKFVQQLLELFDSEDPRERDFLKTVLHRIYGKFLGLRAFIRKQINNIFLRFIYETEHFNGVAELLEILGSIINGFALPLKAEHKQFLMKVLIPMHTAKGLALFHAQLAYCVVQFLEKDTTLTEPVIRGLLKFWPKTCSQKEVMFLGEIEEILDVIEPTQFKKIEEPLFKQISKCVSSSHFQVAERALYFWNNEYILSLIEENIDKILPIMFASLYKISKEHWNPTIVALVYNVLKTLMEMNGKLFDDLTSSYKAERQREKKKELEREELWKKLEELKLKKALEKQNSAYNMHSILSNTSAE
Described as above.

Assay [4] deals with T3, PP2A regulatory subunit B56ε (human (endogenous in human HEK TER …, UniProt Q16537 2-467, limits assumed)).
T3 construct: Endogenous protein found in anti-FLAG immune complexes by immunoblot
T3 sequence (Q16537 2-467 limits assumed): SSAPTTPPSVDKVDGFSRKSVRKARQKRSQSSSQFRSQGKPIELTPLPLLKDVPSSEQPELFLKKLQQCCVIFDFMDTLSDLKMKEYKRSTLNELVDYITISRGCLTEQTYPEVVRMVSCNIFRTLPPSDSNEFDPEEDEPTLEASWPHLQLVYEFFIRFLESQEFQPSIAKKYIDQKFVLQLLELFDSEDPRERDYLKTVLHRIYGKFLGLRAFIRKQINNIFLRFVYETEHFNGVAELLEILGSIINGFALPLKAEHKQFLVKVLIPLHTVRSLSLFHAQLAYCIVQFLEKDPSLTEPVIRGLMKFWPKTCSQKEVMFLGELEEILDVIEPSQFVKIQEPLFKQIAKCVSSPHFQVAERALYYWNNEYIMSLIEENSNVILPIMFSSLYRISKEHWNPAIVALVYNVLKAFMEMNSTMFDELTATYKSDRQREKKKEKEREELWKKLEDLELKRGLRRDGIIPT
The description is as above.

Assay [5] deals with T4, PP2A catalytic subunit Cα (human (endogenous in human HEK TER or …, UniProt P67775 1-309)).
T4 construct: Endogenous protein found in anti-FLAG immune complexes by immunoblot or mass spectroscopy; also called PP2A catalytic Cα
T4 sequence (P67775 whole entry): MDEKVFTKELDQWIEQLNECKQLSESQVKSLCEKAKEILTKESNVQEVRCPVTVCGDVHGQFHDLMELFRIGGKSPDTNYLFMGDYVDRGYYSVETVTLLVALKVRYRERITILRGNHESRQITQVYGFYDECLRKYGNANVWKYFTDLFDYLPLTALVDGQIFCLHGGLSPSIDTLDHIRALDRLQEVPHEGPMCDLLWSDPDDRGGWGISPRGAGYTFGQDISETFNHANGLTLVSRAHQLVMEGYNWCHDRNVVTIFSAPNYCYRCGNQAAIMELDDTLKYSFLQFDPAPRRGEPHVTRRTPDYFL
The assay is described as above.

Sequence of PP2A regulatory subunit B56γ (human (Q13362 whole entry): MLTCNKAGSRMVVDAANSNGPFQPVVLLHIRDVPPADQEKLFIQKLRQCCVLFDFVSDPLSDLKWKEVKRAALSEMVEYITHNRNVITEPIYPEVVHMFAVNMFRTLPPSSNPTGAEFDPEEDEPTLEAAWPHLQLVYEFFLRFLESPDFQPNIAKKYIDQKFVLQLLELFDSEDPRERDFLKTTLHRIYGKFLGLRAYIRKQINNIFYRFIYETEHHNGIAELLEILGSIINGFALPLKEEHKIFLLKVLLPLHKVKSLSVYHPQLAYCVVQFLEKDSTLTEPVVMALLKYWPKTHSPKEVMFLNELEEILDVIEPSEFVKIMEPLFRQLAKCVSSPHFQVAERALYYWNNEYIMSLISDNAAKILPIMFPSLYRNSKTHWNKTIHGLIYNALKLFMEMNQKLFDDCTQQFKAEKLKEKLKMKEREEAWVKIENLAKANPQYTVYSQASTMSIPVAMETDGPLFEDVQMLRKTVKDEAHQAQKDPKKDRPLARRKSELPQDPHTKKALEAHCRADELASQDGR

B1: cancer-derived FLAG-tagged PP2A Aβ mutant ΔE344-E388 (other)
chain: MDYKDDDDKAGASELGTGPGAAGGDGDDSLYPIAVLIDELRNEDVQLRLNSIKKLSTIALALGVERTRSELLPFLTDTIYDEDEVLLALAEQLGNFTGLVGGPDFAHCLLPPLENLATVEETVVRDKAVESLRQISQEHTPVALEAYFVPLVKRLASGDWFTSRTSACGLFSVCYPRASNAVKAEIRQQFRSLCSDDTPMVRRAAASKLGEFAKVLELDSVKSEIVPLFTSLASDEQDSVRLLAVEACVSIAQLLSQDDLETLVMPTLRQAAEDKSWRVRYMVADRFSELQKAMGPKITLNDLIPAFQNLLKDCEAEVRAAAAHKVKELGENLPIEDRETIIMNQILPYIKCPDVRLNIISNLDCVNEVIGIRQLSQSLLPAIVELAEDAKWRVRLAIIEYMPLLAGQLGVEFFDEKLNSLCMAWLVDHVYAIREAATNNLMKLVQKFGTEWAQNTIVPKVLVMANDPNYLHRMTTLFCINALSEACGQEITTKQMLPIVLKMAGDQVANVRFNVAKSLQKIGPILDTNALQGEVKPVLQKLGQDEDMDVKYFAQEAISVLALA
notes: Deletion of exon 9, in-frame deletion of 45 amino acids; Overexpressed in HEK TER cells; also called D344-388
As to B1, in assay [1], the binding result is “no binding”.

B2: wild type (WT) FLAG epitope-tagged version of PP2A Aβ (other, UniProt P30154 1-601, looked up, not shown: small tags and cut ends)
chain: MAGASELGTGPGAAGGDGDDSLYPIAVLIDELRNEDVQLRLNSIKKLSTIALALGVERTRSELLPFLTDTIYDEDEVLLALAEQLGNFTGLVGGPDFAHCLLPPLENLATVEETVVRDKAVESLRQISQEHTPVALEAYFVPLVKRLASGDWFTSRTSACGLFSVCYPRASNAVKAEIRQQFRSLCSDDTPMVRRAAASKLGEFAKVLELDSVKSEIVPLFTSLASDEQDSVRLLAVEACVSIAQLLSQDDLETLVMPTLRQAAEDKSWRVRYMVADRFSELQKAMGPKITLNDLIPAFQNLLKDCEAEVRAAAAHKVKELGENLPIEDRETIIMNQILPYIKELVSDTNQHVKSALASVIMGLSTILGKENTIEHLLPLFLAQLKDECPDVRLNIISNLDCVNEVIGIRQLSQSLLPAIVELAEDAKWRVRLAIIEYMPLLAGQLGVEFFDEKLNSLCMAWLVDHVYAIREAATNNLMKLVQKFGTEWAQNTIVPKVLVMANDPNYLHRMTTLFCINALSEACGQEITTKQMLPIVLKMAGDQVANVRFNVAKSLQKIGPILDTNALQGEVKPVLQKLGQDEDMDVKYFAQEAISVLALA
notes: also called wtPP2A Aβ; FLAG-tagged Aβ
Regarding B2, the “binding level (percent, co-immunoprecipitation densitometry)” value in assay [2], in assay [3], in assay [4] and in assay [5] was over 90% throughout.

B3: cancer-derived FLAG-tagged PP2A Aβ mutant D504G (other, UniProt P30154 1-601, looked up, not shown: small tags and cut ends)
chain: MAGASELGTGPGAAGGDGDDSLYPIAVLIDELRNEDVQLRLNSIKKLSTIALALGVERTRSELLPFLTDTIYDEDEVLLALAEQLGNFTGLVGGPDFAHCLLPPLENLATVEETVVRDKAVESLRQISQEHTPVALEAYFVPLVKRLASGDWFTSRTSACGLFSVCYPRASNAVKAEIRQQFRSLCSDDTPMVRRAAASKLGEFAKVLELDSVKSEIVPLFTSLASDEQDSVRLLAVEACVSIAQLLSQDDLETLVMPTLRQAAEDKSWRVRYMVADRFSELQKAMGPKITLNDLIPAFQNLLKDCEAEVRAAAAHKVKELGENLPIEDRETIIMNQILPYIKELVSDTNQHVKSALASVIMGLSTILGKENTIEHLLPLFLAQLKDECPDVRLNIISNLDCVNEVIGIRQLSQSLLPAIVELAEDAKWRVRLAIIEYMPLLAGQLGVEFFDEKLNSLCMAWLVDHVYAIREAATNNLMKLVQKFGTEWAQNTIVPKVLVMANGPNYLHRMTTLFCINALSEACGQEITTKQMLPIVLKMAGDQVANVRFNVAKSLQKIGPILDTNALQGEVKPVLQKLGQDEDMDVKYFAQEAISVLALA
notes: Overexpressed in HEK TER cells
Take B3: the binding result in assay [1] is listed as “no binding”. The “binding level (percent, co-immunoprecipitation densitometry)” value in assay [2] was 50 to 90%; in assay [3], over 90%; in assay [4] it was over 90%; in assay [5], under 50%.

B4: cancer-derived FLAG-tagged PP2A Aβ mutant L101P/V448A (other, UniProt P30154 1-601, looked up, not shown: small tags and cut ends)
chain: MAGASELGTGPGAAGGDGDDSLYPIAVLIDELRNEDVQLRLNSIKKLSTIALALGVERTRSELLPFLTDTIYDEDEVLLALAEQLGNFTGLVGGPDFAHCPLPPLENLATVEETVVRDKAVESLRQISQEHTPVALEAYFVPLVKRLASGDWFTSRTSACGLFSVCYPRASNAVKAEIRQQFRSLCSDDTPMVRRAAASKLGEFAKVLELDSVKSEIVPLFTSLASDEQDSVRLLAVEACVSIAQLLSQDDLETLVMPTLRQAAEDKSWRVRYMVADRFSELQKAMGPKITLNDLIPAFQNLLKDCEAEVRAAAAHKVKELGENLPIEDRETIIMNQILPYIKELVSDTNQHVKSALASVIMGLSTILGKENTIEHLLPLFLAQLKDECPDVRLNIISNLDCVNEVIGIRQLSQSLLPAIVELAEDAKWRVRLAIIEYMPLLAGQLGAEFFDEKLNSLCMAWLVDHVYAIREAATNNLMKLVQKFGTEWAQNTIVPKVLVMANDPNYLHRMTTLFCINALSEACGQEITTKQMLPIVLKMAGDQVANVRFNVAKSLQKIGPILDTNALQGEVKPVLQKLGQDEDMDVKYFAQEAISVLALA
notes: as for B3
On to B4, for which, in assay [1], the binding result was “no binding”. The “binding level (percent, co-immunoprecipitation densitometry)” value in assay [4] is under 50%.

B5: cancer-derived FLAG-tagged PP2A Aβ mutant V448A (other, UniProt P30154 1-601, looked up, not shown: small tags and cut ends)
chain: MAGASELGTGPGAAGGDGDDSLYPIAVLIDELRNEDVQLRLNSIKKLSTIALALGVERTRSELLPFLTDTIYDEDEVLLALAEQLGNFTGLVGGPDFAHCLLPPLENLATVEETVVRDKAVESLRQISQEHTPVALEAYFVPLVKRLASGDWFTSRTSACGLFSVCYPRASNAVKAEIRQQFRSLCSDDTPMVRRAAASKLGEFAKVLELDSVKSEIVPLFTSLASDEQDSVRLLAVEACVSIAQLLSQDDLETLVMPTLRQAAEDKSWRVRYMVADRFSELQKAMGPKITLNDLIPAFQNLLKDCEAEVRAAAAHKVKELGENLPIEDRETIIMNQILPYIKELVSDTNQHVKSALASVIMGLSTILGKENTIEHLLPLFLAQLKDECPDVRLNIISNLDCVNEVIGIRQLSQSLLPAIVELAEDAKWRVRLAIIEYMPLLAGQLGAEFFDEKLNSLCMAWLVDHVYAIREAATNNLMKLVQKFGTEWAQNTIVPKVLVMANDPNYLHRMTTLFCINALSEACGQEITTKQMLPIVLKMAGDQVANVRFNVAKSLQKIGPILDTNALQGEVKPVLQKLGQDEDMDVKYFAQEAISVLALA
notes: as for B3
As for B5, the binding result in assay [1] was “no binding”. In addition, the “binding level (percent, co-immunoprecipitation densitometry)” value in assay [2] and in assay [4] was under 50% in each case.

B6: cancer-derived FLAG-tagged PP2A Aβ mutant L101P (other, UniProt P30154 1-601, looked up, not shown: small tags and cut ends)
chain: MAGASELGTGPGAAGGDGDDSLYPIAVLIDELRNEDVQLRLNSIKKLSTIALALGVERTRSELLPFLTDTIYDEDEVLLALAEQLGNFTGLVGGPDFAHCPLPPLENLATVEETVVRDKAVESLRQISQEHTPVALEAYFVPLVKRLASGDWFTSRTSACGLFSVCYPRASNAVKAEIRQQFRSLCSDDTPMVRRAAASKLGEFAKVLELDSVKSEIVPLFTSLASDEQDSVRLLAVEACVSIAQLLSQDDLETLVMPTLRQAAEDKSWRVRYMVADRFSELQKAMGPKITLNDLIPAFQNLLKDCEAEVRAAAAHKVKELGENLPIEDRETIIMNQILPYIKELVSDTNQHVKSALASVIMGLSTILGKENTIEHLLPLFLAQLKDECPDVRLNIISNLDCVNEVIGIRQLSQSLLPAIVELAEDAKWRVRLAIIEYMPLLAGQLGVEFFDEKLNSLCMAWLVDHVYAIREAATNNLMKLVQKFGTEWAQNTIVPKVLVMANDPNYLHRMTTLFCINALSEACGQEITTKQMLPIVLKMAGDQVANVRFNVAKSLQKIGPILDTNALQGEVKPVLQKLGQDEDMDVKYFAQEAISVLALA
notes: as for B3
Regarding B6, in assay [1], the binding result is listed as “no binding”. Also, the “binding level (percent, co-immunoprecipitation densitometry)” value in assay [2] is under 50%; in assay [4], over 90%.

B7: cancer-derived FLAG-tagged PP2A Aβ mutant K343E (other, UniProt P30154 1-601, looked up, not shown: small tags and cut ends)
chain: MAGASELGTGPGAAGGDGDDSLYPIAVLIDELRNEDVQLRLNSIKKLSTIALALGVERTRSELLPFLTDTIYDEDEVLLALAEQLGNFTGLVGGPDFAHCLLPPLENLATVEETVVRDKAVESLRQISQEHTPVALEAYFVPLVKRLASGDWFTSRTSACGLFSVCYPRASNAVKAEIRQQFRSLCSDDTPMVRRAAASKLGEFAKVLELDSVKSEIVPLFTSLASDEQDSVRLLAVEACVSIAQLLSQDDLETLVMPTLRQAAEDKSWRVRYMVADRFSELQKAMGPKITLNDLIPAFQNLLKDCEAEVRAAAAHKVKELGENLPIEDRETIIMNQILPYIEELVSDTNQHVKSALASVIMGLSTILGKENTIEHLLPLFLAQLKDECPDVRLNIISNLDCVNEVIGIRQLSQSLLPAIVELAEDAKWRVRLAIIEYMPLLAGQLGVEFFDEKLNSLCMAWLVDHVYAIREAATNNLMKLVQKFGTEWAQNTIVPKVLVMANDPNYLHRMTTLFCINALSEACGQEITTKQMLPIVLKMAGDQVANVRFNVAKSLQKIGPILDTNALQGEVKPVLQKLGQDEDMDVKYFAQEAISVLALA
notes: as for B3
In the case of B7, the binding result in assay [1] is “no binding”. For the same molecule, the “binding level (percent, co-immunoprecipitation densitometry)” value in assay [2] is 50 to 90%; in assay [3], under 50%; in assay [4], 50 to 90%; in assay [5] it was under 50%.
